One data set addresses MLN51 SELOR (UniProt O15234 137-283). The data set is described as follows: SPR; no nucleotide; 5 mM Mg2+; SPR (Biacore 2000): 40 mM Tris-HCl pH 7.8, 50 mM NaCl, 4 mM DTT, 5 mM MgCl2, 0.002% Tween 20, 30 ul/min, 10-160 nM protein; temperature not stated. The conditions noted are these: protein: recombinant; tags: GST cleaved off (PreScission); label: 5' biotin; single strand.

In another data set the target is eIF4AIII;MLN51 SELOR (human;human?, UniProt P38919;O15234 1-411;137-283, |). The data set is described as follows: SPR; AMPPNP; 5 mM Mg2+; SPR (Biacore 2000): 40 mM Tris-HCl pH 7.8, 50 mM NaCl, 4 mM DTT, 5 mM MgCl2, 0.002% Tween 20, 30 ul/min, 10-160 nM protein; temperature not stated. Particulars: protein: recombinant;recombinant; tags: N-terminal His6;GST cleaved off (PreScission); copies: 1;1; label: 5' biotin; single strand.
Chain of eIF4AIII;MLN51 SELOR (P38919 whole entry, chain 1 of 2): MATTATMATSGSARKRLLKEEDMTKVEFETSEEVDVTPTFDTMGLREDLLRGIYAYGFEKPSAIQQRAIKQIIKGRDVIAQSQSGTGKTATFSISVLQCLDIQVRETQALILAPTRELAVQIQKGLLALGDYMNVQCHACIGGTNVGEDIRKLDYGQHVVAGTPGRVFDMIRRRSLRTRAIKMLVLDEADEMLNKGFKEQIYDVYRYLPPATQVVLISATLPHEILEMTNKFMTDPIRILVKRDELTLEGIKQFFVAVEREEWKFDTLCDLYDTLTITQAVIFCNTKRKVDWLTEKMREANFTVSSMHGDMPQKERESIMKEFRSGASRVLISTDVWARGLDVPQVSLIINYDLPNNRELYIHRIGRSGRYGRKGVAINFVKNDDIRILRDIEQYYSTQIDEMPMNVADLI
Chain of eIF4AIII;MLN51 SELOR (O15234 137-283, chain 2 of 2): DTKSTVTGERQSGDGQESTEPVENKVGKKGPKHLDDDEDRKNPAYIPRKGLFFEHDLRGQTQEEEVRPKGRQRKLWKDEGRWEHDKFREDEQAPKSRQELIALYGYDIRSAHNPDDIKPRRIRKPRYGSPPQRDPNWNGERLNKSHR

Data set [1] addresses eIF4AIII;MLN51 SELOR;Y14;Magoh (human;human;human, UniProt P38919;O15234;Q9Y5S9;P61326 1-411;137-283;50-174;1-146, |||). The data set is described as follows: SPR; ATP; 5 mM Mg2+; SPR (Biacore 2000): 40 mM Tris-HCl pH 7.8, 50 mM NaCl, 4 mM DTT, 5 mM MgCl2, 0.002% Tween 20, 30 ul/min, 10-160 nM protein; temperature not stated. Particulars: protein: recombinant;recombinant;recombinant;recombinant; tags: N-terminal His6;GST cleaved off (PreScission);none;N-terminal His6; copies: 1;1;1;1; label: 5' biotin; single strand.

A further data set has as its target Y14;Magoh (human;human, UniProt Q9Y5S9;P61326 50-174;1-146, |). Description: SPR; no nucleotide stated; 5 mM Mg2+; SPR (Biacore 2000): 40 mM Tris-HCl pH 7.8, 50 mM NaCl, 4 mM DTT, 5 mM MgCl2, 0.002% Tween 20, 30 ul/min, 10-160 nM protein; temperature not stated. Particulars: protein: recombinant;recombinant; tags: none;N-terminal His6; copies: 1;1; label: 5' biotin; single strand. (In general: Surface plasmon resonance follows binding to a sensor surface in real time, without labels.)

Our source for the Kd values is article PMC1810427, “MLN51 Stimulates the RNA-Helicase Activity of eIF4AIII”.

A word on the Kd: it is the equilibrium constant for the complex coming apart.

Chain of eIF4AIII;MLN51 SELOR;Y14;Magoh (P38919 whole entry, chain 1 of 4, other chains not shown): as the sequence (P38919 whole entry, chain 1 of 2) above
Chain of eIF4AIII;MLN51 SELOR;Y14;Magoh (O15234 137-283, chain 2 of 4, other chains not shown): as the sequence (O15234 137-283, chain 2 of 2) above
Chain of eIF4AIII;MLN51 SELOR;Y14;Magoh (P61326 whole entry, chain 4 of 4, other chains not shown): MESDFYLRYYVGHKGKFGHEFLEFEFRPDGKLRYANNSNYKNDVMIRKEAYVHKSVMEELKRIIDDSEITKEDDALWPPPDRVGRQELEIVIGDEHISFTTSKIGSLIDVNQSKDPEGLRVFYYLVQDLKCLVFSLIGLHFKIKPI
Chain of MLN51 SELOR (O15234 137-283): as the sequence (O15234 137-283, chain 2 of 2) above
Chain of Y14;Magoh (P61326 whole entry, chain 2 of 2, other chains not shown): as the sequence (P61326 whole entry, chain 4 of 4, other chains not shown) above

AUGUCAUUCGAGUACAGUCUGUUCAGCUAGUCUCC (ssRNA) [35-mer ssRNA]: the Kd with MLN51 SELOR is ~1000 nM; with eIF4AIII;MLN51 SELOR, ~10 nM; in data set [1], ~10 nM; with Y14;Magoh, ~2000 nM.
